Where two headings read alike, the source gives them in different places.
T1: human Claudin 6 (human, UniProt P56747 1-220)
T1 construct: whole, on cells; also called CLDN6
T1 sequence (looked up): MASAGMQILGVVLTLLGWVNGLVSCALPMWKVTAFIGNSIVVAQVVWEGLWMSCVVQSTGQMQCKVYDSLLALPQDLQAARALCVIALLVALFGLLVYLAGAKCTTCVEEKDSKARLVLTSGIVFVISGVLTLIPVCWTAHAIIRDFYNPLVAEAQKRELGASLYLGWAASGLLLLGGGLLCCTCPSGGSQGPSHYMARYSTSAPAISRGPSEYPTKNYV

T2: human Claudin 9 (human, UniProt O95484 1-217)
T2 construct: whole, on cells; also called CLDN9; CLND9
T2 sequence (looked up): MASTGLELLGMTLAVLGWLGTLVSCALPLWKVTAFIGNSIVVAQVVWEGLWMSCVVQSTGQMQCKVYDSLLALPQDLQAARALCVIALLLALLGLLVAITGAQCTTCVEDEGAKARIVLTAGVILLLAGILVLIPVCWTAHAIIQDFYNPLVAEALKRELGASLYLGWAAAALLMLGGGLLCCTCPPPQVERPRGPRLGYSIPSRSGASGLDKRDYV

T3: human Claudin 3 (human, UniProt O15551 1-220)
T3 construct: whole, on cells; also called CLDN3
T3 sequence (looked up): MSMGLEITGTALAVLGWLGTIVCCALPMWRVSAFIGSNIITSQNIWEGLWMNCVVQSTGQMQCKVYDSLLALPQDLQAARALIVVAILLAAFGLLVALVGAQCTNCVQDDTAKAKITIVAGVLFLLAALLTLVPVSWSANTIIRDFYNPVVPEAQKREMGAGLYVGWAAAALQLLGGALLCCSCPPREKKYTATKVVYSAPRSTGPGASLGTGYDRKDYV


Legend:
human Claudin 6 [1] = molecular target: T1, human Claudin 6; assay: flow cytometry, HEK293/H_CLDN6 cells, Ab titrated from 100 nM
Experimental: (§1) In this example, cell based binding of chimeric Abs on human CLDN6 & CLND9 over-expressing cell line were assessed using flow cytometry.
(§2) Briefly, the cells were incubated with chimeric Abs (from 100 nM, 6-fold dilution, 8 points) for 60 minutes at 4° C. Cells were pelleted and washed twice with 2% FBS/PBS buffer, and stained with fluorescent conjugated secondary antibody at 4° C. for 30 minutes. After that the cells were washed twice and resuspended in 80 μL of 2% FBS/PBS buffer. Fluorescent signal of binding was detected using Agilent. The EC50 was calculated using the GraphPad software (LaJolla, CA).

human Claudin 9 [2] = molecular target: T2, human Claudin 9; assay: flow cytometry, HEK293/H_CLDN9 cells, Ab titrated from 100 nM
Experimental: as §1, §2

human Claudin 9 [3] = molecular target: T2, human Claudin 9; assay: flow cytometry, HEK293/H_CLDN9 cells
Experimental: In this example, cell-based binding of z5 toward human CLDN9 engineering expressing cells were assessed using flow cytometry.
Briefly, 2 cell lines were incubated with antibodies (from 100 nM, 6 folds dilution, 8 points) at 4° C. for 60 minutes. Cells were pelleted and washed twice with 2% FBS/PBS buffer, and stained with fluorescent conjugated secondary antibody at 4° C. for 30 minutes. After that the cells were washed twice and resuspended in 80 μL of 2% FBS/PBS buffer. Fluorescent signal of binding was detected using Agilent. The EC50 was calculated using the GraphPad software.

human Claudin 9 [4] = molecular target: T2, human Claudin 9; assay: flow cytometry, HEK293/H_CLDN9 cells, Ab titrated from 100 nM; remark: listed apart in the source
Experimental: In this example, cell-based binding of hu Abs on human CLDN9 expressing cells were assessed using flow cytometry.
Briefly, the HEK293/H_CLDN9 cells were incubated with hu-Abs (from 100 nM, 6 folds dilution, 8 points). After incubation at 4° C. for 60 minutes. Cells were pelleted and washed twice with 2% FBS/PBS buffer, and stained with fluorescent conjugated secondary antibody at 4° C. for 30 minutes. After that the cells were washed twice and resuspended in 80 μL of 2% FBS/PBS buffer. Fluorescent signal of binding was detected using Agilent. The EC50 was calculated using the GraphPad software (LaJolla, CA).

human Claudin 6 [5] = molecular target: T1, human Claudin 6; assay: flow cytometry, HEK293/H_CLDN6 cells, Ab titrated from 100 nM; remark: listed apart in the source
Experimental: In this example, cell-based binding of humanized antibodies (hu Abs) on human CLDN6 expressing cells were assessed using flow cytometry.
Briefly, the HEK293/H_CLDN6 cells were incubated with hu-Abs (from 100 nM, 6 folds dilution, 8 points). After incubation at 4° C. for 60 minutes. Cells were pelleted and washed twice with 2% FBS/PBS buffer, and stained with fluorescent conjugated secondary antibody at 4° C. for 30 minutes. After that the cells were washed twice and resuspended in 80 μL of 2% FBS/PBS buffer. Fluorescent signal of binding was detected using Agilent. The EC50 was calculated using the GraphPad software.

human Claudin 3 [6] = molecular target: T3, human Claudin 3; assay: flow cytometry, CHOK1/H_CLDN3 cells, Ab titrated from 100 nM
Experimental: (§3) In this example, cell-based binding of hu Abs on human CLDN3 expressing cells were assessed using flow cytometry.
(§4) Briefly, the CHOK1/H_CLDN3 cells were incubated with hu-Abs (from 100 nM, 6 folds dilution, 8 points). After incubation at 4° C. for 60 minutes. Cells were pelleted and washed twice with 2% FBS/PBS buffer, and stained with fluorescent conjugated secondary antibody at 4° C. for 30 minutes. After that the cells were washed twice and resuspended in 80 μL of 2% FBS/PBS buffer. Fluorescent signal of binding was detected using Agilent. The EC50 was calculated using the GraphPad software.

human Claudin 3 [7] = molecular target: T3, human Claudin 3; assay: flow cytometry, CHOK1/H_CLDN3 cells
Experimental: as §3, §4

| Binder | Top MFI (human Claudin 6 [1]) | Top MFI (human Claudin 9 [2]) | further results |
| --- | --- | --- | --- |
| 59-H12C5 (antibody, V domains shown, Tested as chimeric antibody) VH: EVQLVESGGGLVQPGGSLKLSCAASGFTFSSHGMSWVRQTADRGLELVASINSNGGRTYYPDSMKGRFTISRDNAKNTLYLQLSSLQPEDTALYYCACYYDNTYYAMDYWGQGTSLTVSS VL: QIVLTQSPAIMSASLGERVTMTCTASSSVSSSSLHWYQQKPGSSPKLWIYTTSTLASGVPARFSGSGSGTSYSLTISSMEAEDAATYYCHQYHRSPPTFGGGTKLEIK | 379000 | 341000 |  |
| 59-A2E6 (antibody, V domains shown, Tested as chimeric antibody) VH: EVQLQQSGPELVKPGASVKISCKTSGYTFTEYTMHWVKQSHGKSLEWIGGINPKNGGTSYNQKFKGKATLTVDKSSSTVYMEFRSLTTEDSAVYYCARGMLVAFYFDCWGQGTTLTVSS VL: DIQMTQSPASQSASLGESVTITCLASQTIGTWLAWYQQKPGKSPQLLIYAATSLADGVPSRFSGSGSGTKFSFKISSLQAEDFVSYYCQQLYSTPYTFGGGTKLEIK | 264000 | 102000 |  |
| 81-H10F8 (antibody, V domains shown, Tested as chimeric antibody) VH: EVQLQQSGPELVKPGASVKISCKTSGYTFTEYTMHWVKQSHGKSLEWIGGINPNNGGTSYNQKFKGKATLTVDKSSRTAYMELRSLTSEDSAVYYCARGMVVAFYFDCWGQGTTLTVSS VL: DIQMTQSPASQSASLGESVTITCLASQTIGTWLAWYQQKPGKSPQLLIYAATGLADGVPSRFSGGGSGTKFSFKISSLQVEDFVSYYCQQLYSTPYTFGGGTKLEIK | 257000 | 105000 |  |
| 85-H10A5 (antibody, V domains shown, Tested as chimeric antibody) VH: EVQLQQSGPELVKPGASVKISCKTSGYTFTEYPMHWVKQSHEKSLEWIGGINPKNGDANSNQKFKGKATLTVDKSSSTAYMELRSLTSEDSAVYYCARGWLLLFDVWGAGTMVTVSS VL: DIQMTQSSSSFSVSLGDRVTISCKASEDIYNRLAWYQQKPGNAPRLLISGATSLETGIPSRFSGSGSGKDYTLSITTLQTEDVAAYYCQQYWSSPLTFGAGTKLELR | 285000 | 113000 |  |
| 23-B2F11 (antibody, V domains shown, Tested as chimeric antibody) VH: EVQLQQSGPELVKPGASVKISCKTSGYTFTEYTMHWVKQSHGRSLEWIGGINPNNGDTIYNQKFKGKATLTVDKSSSTAYMELRSLTSEDSAVYYCARRGGYGNFNFDYWGQGTTLTVSS VL: DIQMTQSSSSFSVSLRDRVTITCKASEDIYNRLAWYQQKPGNAPRLLISGATSLETGVPSRFSGSGSGKDYTLSITSLQTEDVATYYCQQYWSSPYTFGGGTKVEIK | 117000 | 93300 |  |
| 36-E6A6 (antibody, V domains shown, Tested as chimeric antibody) VH: QVQLQQSGGEVVRPGTSVKVSCKASGYAFTNNLIEWVKQRPGQGLEWIGVIHPGSGGSNYNEKFKNKATLTTDKSSSTAYIQLSSLTSDDSAVYFCARRGRDYAMDYWGQGTSVTVSS VL: EIVLTQSPAIMSASLGEKVTMSCRASSSVNSIYWYQQKSDASPKLWIYYTSNLAPGVPARFSGSGSGNSYSLTIRSMEGEDAATYYCQQFTSSPLTFGAGTKLELK | 62100 |  |  |
| 97-C10E1-2-P1.z14 (antibody, V domains shown) VH: QVQLQQSGAEVKKPGASMKISCKASGYAFTGYTMNWVRQAPGQNLEWIGLSNPYNAGTIYNQKFKGRATLTVDKSTSTAYMELLSLRSEDTAVYYCARNYYYGSSYAYYYAMDYWGQGTTVTVSS VL: DAQMTQSPSSLSASVGDRVTITCRSSTGAVTTSNYANWVQQKPGKAFKGLIGGTNNRAPGVPARFSGSLSGTDAALTISSLQPEDFATYFCALWYSNHWVFGGGTKVEIK |  |  | binding result (human Claudin 9 [3]): no binding (tested: 100 nM (highest concentration tested)); Top MFI (human Claudin 9 [4]): 661; Top MFI (human Claudin 6 [5]): 115000; Top MFI (human Claudin 3 [6]): 158; binding result (human Claudin 3 [7]): no binding (tested: 100 nM (highest concentration tested)) |
